Results on 94 variants are retold here after the supplement of paper PMC10567573.

First the molecules themselves.
B1: RAD51 (parent)
chain: APKKELINIKGISEAKADKILAEA
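Further: lentivirally expressed fusions sorted by FACS into six bins by GFP to DsRed ratio, PSI derived from sequencing read proportions per bin multiplied by bin number.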

Variants of B1 are the subject of the data set. The data set is described as follows: protein stability index of a GFP-peptide fusion (GPS, HEK-293T) (PSI 1-6); higher = more stable. The settings on record: c terminus: a fixed tail appended.
For the variant APKKELINIKGISEAKADKMLAEA, the protein stability index came out at 5.16.
The figure for APKKELINIKGISYAKADKILAEA is 3.65.
For the variant APKKELINIKGISPAKADKILAEA, the protein stability index was 4.96.
With APKKELINIKGWSEAKADKILAEA, the protein stability index turned out to be 4.36.
On to APKKELINIKGYSEAKADKILAEA, for which the protein stability index was found to be 4.13.
With APKKELINIKGISEAKADKILAEQ the figure was 5.1; with APKKELINIKGISEAKADKILAEH, 4.76.
The figure for APKKELINIKGISEAKADKILAES is 4.75.
With APKKELINIKGISEAMADKILAEA the figure was 3.59; with APKKELINIKGISEARADKILAEA, 4.53.
As for APKKELINIKGISEAEADKILAEA, the protein stability index amounted to 5.08.
APKKELINIKGISEAIADKILAEA: the protein stability index came to 3.8.
The figure for APKKELINIKGISEAFADKILAEA is 3.67; for APKKELINIKGISEAKADGILAEA it is 4.93; for APKKELINIKGISEAKADMILAEA it is 4.43.
The figure for APKKELINIKGISEAKADQILAEA is 4.78.
On to APKKELINIKGISEAKADCILAEA, for which the protein stability index is 4.44.
Regarding APKKELINIKGISEAKADIILAEA, the protein stability index came to 3.38.
With APKKELINIKGISEAKADWILAEA, the protein stability index came out at 3.48.
For the variant APKGELINIKGISEAKADKILAEA, the protein stability index amounted to 4.57.
As to APKTELINIKGISEAKADKILAEA, the protein stability index was found to be 4.69.
On to APKSELINIKGISEAKADKILAEA, for which the protein stability index amounted to 4.96.
With APKLELINIKGISEAKADKILAEA the figure was 4.19; with APKVELINIKGISEAKADKILAEA, 4.82; with APKKELINIKGISEAKADKILAPA, 4.34.
With APKKELINIKGISEAKADKILALA the figure was 3.43.
For the variant APKKELINIKGISEAKADKILAVA, the protein stability index was found to be 3.73.
In the case of APKKELINIKGISEAKADKILAIA, the protein stability index was found to be 3.36.
APKKELINIKGISEAKADKILAWA: the protein stability index is 3.02.
APKKELINIKGISEAKADKILANA: the protein stability index was determined as 4.58.
With APKKELINIKGISEAKAFKILAEA the figure was 2.59; with APKKELINIKGISEAKAWKILAEA, 2.76.
The figure for APKKELINIKGISEAKAHKILAEA is 4.29; for APKKELINIKGISEAKALKILAEA it is 3.9; for APKKELINIKGISEAKAIKILAEA it is 3.62.
As for VPKKELINIKGISEAKADKILAEA, the protein stability index worked out at 4.08.
In the case of GPKKELINIKGISEAKADKILAEA, the protein stability index was 4.71.
With FPKKELINIKGISEAKADKILAEA, the protein stability index was 3.87.
In the case of WPKKELINIKGISEAKADKILAEA, the protein stability index was determined as 3.75.
With LPKKELINIKGISEAKADKILAEA the figure was 4.72; with PPKKELINIKGISEAKADKILAEA, 4.67.
For APKKELINIKGISEAKADKIAAEA, the protein stability index worked out at 4.91.
For APKKELINIKGISEAKADKIYAEA, the protein stability index amounted to 4.58.
On to APKKELINIKGISEAKADKIWAEA, for which the protein stability index came to 4.27.
As for APKKELINIKGISEAKADKIKAEA, the protein stability index is 5.2.
As for APKKELINIKGISEAKADKIHAEA, the protein stability index amounted to 4.95.
On to APKKELINIMGISEAKADKILAEA, for which the protein stability index is 4.02.
The figure for APKKELINISGISEAKADKILAEA is 5.35; for APKKELINIEGISEAKADKILAEA it is 5.1.
The figure for APKKELINIAGISEAKADKILAEA is 4.56; for APCKELINIKGISEAKADKILAEA it is 4.28.
For AVKKELINIKGISEAKADKILAEA, the protein stability index amounted to 4.44.
Consider AHKKELINIKGISEAKADKILAEA, for which the protein stability index was 4.85.
Turning to ADKKELINIKGISEAKADKILAEA, the protein stability index amounted to 5.18.
In the case of ANKKELINIKGISEAKADKILAEA, the protein stability index turned out to be 4.39.
As for AWKKELINIKGISEAKADKILAEA, the protein stability index was 3.79.
The figure for AGKKELINIKGISEAKADKILAEA is 4.68; for APKKELRNIKGISEAKADKILAEA it is 4.59; for APKKEMINIKGISEAKADKILAEA it is 4.92.
On to APKKECINIKGISEAKADKILAEA, for which the protein stability index stood at 4.97.
For the variant APKKEDINIKGISEAKADKILAEA, the protein stability index was 5.45.
For the variant APKKEHINIKGISEAKADKILAEA, the protein stability index is 5.13.
The figure for APKKEPINIKGISEAKADKILAEA is 5.31; for APKKEGINIKGISEAKADKILAEA it is 4.73.
In the case of APKKGLINIKGISEAKADKILAEA, the protein stability index is 4.63.
As to APKKILINIKGISEAKADKILAEA, the protein stability index is 3.4.
Consider APKKQLINIKGISEAKADKILAEA, for which the protein stability index was 3.96.
Turning to APKKDLINIKGISEAKADKILAEA, the protein stability index was 4.6.
APKKTLINIKGISEAKADKILAEA: the protein stability index stood at 3.85.
APKKKLINIKGISEAKADKILAEA: the protein stability index is 4.
Take APKKLLINIKGISEAKADKILAEA: the protein stability index turned out to be 3.65.
Regarding APKKRLINIKGISEAKADKILAEA, the protein stability index is 4.16.
With APKKELINHKGISEAKADKILAEA the figure was 4.66.
The figure for APKKELINGKGISEAKADKILAEA is 5.11; for APKKELINQKGISEAKADKILAEA it is 4.8; for APKKELINMKGISEAKADKILAEA it is 5.06.
With APKKELINDKGISEAKADKILAEA, the protein stability index came out at 5.19.
Turning to APKKELINIKGISEEKADKILAEA, the protein stability index came out at 5.25.
For APKKELINIKGISETKADKILAEA, the protein stability index stood at 5.07.
For the variant APKKELINIKGISEQKADKILAEA, the protein stability index was 4.58.
The figure for APKKELINIKGISEGKADKILAEA is 4.81; for APKKELINIKGISEFKADKILAEA it is 4.45.
With APKKELINIKGISESKADKILAEA the figure was 4.78; with APKKELINIKGISEAKADKILQEA, 5.15.
As for APKKELINIKGISEAKADKILKEA, the protein stability index amounted to 5.24.
On to APKKELINIKGIMEAKADKILAEA, for which the protein stability index was 4.56.
In the case of APKKELINIKGINEAKADKILAEA, the protein stability index is 4.65.
For the variant APKKELIQIKGISEAKADKILAEA, the protein stability index worked out at 4.67.
On to APKKELIEIKGISEAKADKILAEA, for which the protein stability index worked out at 5.07.
Consider APKKELIAIKGISEAKADKILAEA, for which the protein stability index amounted to 4.7.
The figure for APKKELIVIKGISEAKADKILAEA is 4.07; for APKKELISIKGISEAKADKILAEA it is 4.32.
As to APKKELINIKGISEAKWDKILAEA, the protein stability index came to 3.98.
With APKKELINIKGISEAKQDKILAEA, the protein stability index is 5.11.
